Residues, ends and D or L forms follow the SMILES beside them. No end group written: not given here. *: point of attachment. X1 = CN(C)c1ccc2c(-c3cc(C(=O)*)ccc3C(=O)[O-])c3ccc(=[N+](C)C)cc-3oc2c1

One assay has as its target T1, nLuc-PTHR1 (Homo sapiens, UniProt Q03431).
T1 sequence (Q03431 27-593): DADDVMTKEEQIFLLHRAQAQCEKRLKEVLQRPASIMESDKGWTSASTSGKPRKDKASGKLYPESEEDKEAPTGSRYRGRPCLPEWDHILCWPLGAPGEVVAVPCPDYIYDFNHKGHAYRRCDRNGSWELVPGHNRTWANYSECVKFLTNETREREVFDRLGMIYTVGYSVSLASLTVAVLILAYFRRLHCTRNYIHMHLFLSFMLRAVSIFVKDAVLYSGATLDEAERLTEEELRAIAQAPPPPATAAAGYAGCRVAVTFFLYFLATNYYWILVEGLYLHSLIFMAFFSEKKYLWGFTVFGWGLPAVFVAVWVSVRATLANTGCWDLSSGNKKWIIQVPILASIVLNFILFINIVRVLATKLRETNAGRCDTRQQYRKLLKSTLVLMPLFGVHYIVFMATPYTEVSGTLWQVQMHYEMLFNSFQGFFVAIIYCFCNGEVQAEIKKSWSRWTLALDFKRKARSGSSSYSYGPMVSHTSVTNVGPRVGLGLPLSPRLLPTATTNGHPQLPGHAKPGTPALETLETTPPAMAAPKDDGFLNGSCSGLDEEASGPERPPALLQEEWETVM
It is filed as binding. Conditions: for koff / kon: HEK293.

In a further assay the target is T2, WT-PTHR1 (Homo sapiens, UniProt Q03431).
T2 sequence (Q03431 27-593): T1 sequence (Q03431 27-593)
Description: GloSensor cAMP assay in GP2.3 cells. Type of assay: cell-based. Conditions: for Emax: HEK293, read-out: cAMP formation %Emax. On the technique in general: Changes in cAMP serve as a functional read-out for many G protein-coupled receptors.

The target in assay [1] is nLuc-PTHR1 (human parathyroid hormone receptor-1 with NanoLuc luciferase fused to the N-terminus) (human) (UniProt Q03431). Description: FRET or BRET. (BRET reads energy transfer from a luciferase to a nearby fluorophore.)
Assay [2] has as its target nLuc-ΔECD-PTHR1 (truncated PTHR1 lacking most of the extracellular domain, preceded by NanoLuc luciferase) (human) (UniProt Q03431). Kind of assay: FRET or BRET.
The target of assay [3] is nLuc-PTHR1 (human parathyroid hormone receptor-1 with NanoLuc luciferase fused to the N-terminus) (human) (UniProt Q03431).

In general, koff refers to the rate constant with which the complex falls apart. High values mean fast dissociation, low ones slow dissociation. The term kon denotes the rate constant with which the complex forms. What is called Emax is the size of the effect at its maximum, as opposed to the concentration needed. On nLuc-PTHR1, `CC[C@H](C)[C@H](NC(=O)[C@H](CCCCNC(=O)c1ccc(C(=O)[O-])c(-c2c3ccc(=[N+](C)C)cc-3oc3cc(N(C)C)ccc23)c1)NC(=O)[C@H](C)NC(=O)[C@@H](NC(=O)[C@H](Cc1c[nH]cn1)NC(=O)[C@@H](NC(=O)[C@H](CCC(=O)O)NC(=O)[C@H](C)NC(=O)[C@@H](NC(=O)[C@H](CC(C)C)NC(=O)[C@H](Cc1c[nH]cn1)NC(=O)[C@H](Cc1c[nH]cn1)NC(=O)[C@H](CC(C)C)NC(=O)[C@H](Cc1ccccc1)NC(=O)[C@H](Cc1ccccc1)NC(=O)[C@H](CCCNC(=N)N)NC(=O)[C@H](CCCNC(=N)N)NC(=O)[C@H](CCCNC(=N)N)NC(=O)[C@H](CC(C)C)NC(=O)[C@H](CC(=O)O)NC(=O)[C@H](CCC(N)=O)NC(=O)[C@@H](NC(=O)[C@H](CO)NC(=O)[C@H](CCCCN)NC(=O)CNC(=O)[C@H](CC(C)C)NC(=O)[C@H](CC(N)=O)NC(=O)[C@H](Cc1c[nH]cn1)NC(=O)[C@H](CCSC)NC(=O)[C@H](CC(C)C)NC(=O)[C@H](CCC(N)=O)NC(=O)[C@@H](NC(=O)[C@H](CCC(=O)O)NC(=O)[C@H](CO)NC(=O)[C@@H](NC(=O)[C@@H](N)CO)C(C)C)[C@@H](C)CC)[C@@H](C)CC)[C@@H](C)CC)[C@@H](C)CC)[C@@H](C)O)C(N)=O` [PTH[1-12] PTHrP[13-36]] (H-SVSEIQLMHNLGKSIQDLRRRFFLHHLIAEIHTAK(X1)I-NH2; N-terminus assumed) came in with a koff of 0.0035 ± 0.001 s⁻¹ and a kon of 800000 ± 50000 M⁻¹ s⁻¹. Further, the Emax at WT-PTHR1 came to 107 ± 5%.

As to `CC[C@H](C)[C@H](NC(=O)[C@H](CCCCNC(=O)c1ccc(C(=O)[O-])c(-c2c3ccc(=[N+](C)C)cc-3oc3cc(N(C)C)ccc23)c1)NC(=O)[C@H](C)NC(=O)[C@@H](NC(=O)[C@H](Cc1c[nH]cn1)NC(=O)[C@@H](NC(=O)[C@H](CCC(=O)O)NC(=O)[C@H](C)NC(=O)[C@@H](NC(=O)[C@H](CC(C)C)NC(=O)[C@H](Cc1c[nH]cn1)NC(=O)[C@H](Cc1c[nH]cn1)NC(=O)[C@H](CC(C)C)NC(=O)[C@H](Cc1ccccc1)NC(=O)[C@H](Cc1ccccc1)NC(=O)[C@H](CCCNC(=N)N)NC(=O)[C@H](CCCNC(=N)N)NC(=O)[C@H](CCCNC(=N)N)NC(=O)[C@H](CC(C)C)NC(=O)[C@H](CC(=O)O)NC(=O)[C@H](CCC(N)=O)NC(=O)[C@@H](NC(=O)[C@H](Cc1c[nH]cn1)NC(=O)[C@H](CCCCN)NC(=O)CNC(=O)[C@H](CC(C)C)NC(=O)[C@H](CC(N)=O)NC(=O)[C@H](Cc1c[nH]cn1)NC(=O)[C@H](CCSC)NC(=O)[C@H](CC(C)C)NC(=O)[C@H](CCC(N)=O)NC(=O)[C@@H](NC(=O)[C@H](CCC(=O)O)NC(=O)[C@H](CO)NC(=O)[C@@H](NC(=O)[C@@H](N)CO)C(C)C)[C@@H](C)CC)[C@@H](C)CC)[C@@H](C)CC)[C@@H](C)CC)[C@@H](C)O)C(N)=O` [PTH[1-14] PTHrP[15-36]] (H-SVSEIQLMHNLGKHIQDLRRRFFLHHLIAEIHTAK(X1)I-NH2; N-terminus assumed), on nLuc-PTHR1, the koff amounted to 0.0022 ± 0.0009 s⁻¹ and the kon was determined as 350000 ± 40000 M⁻¹ s⁻¹. Also, the Emax on WT-PTHR1 is 106 ± 1%.

For “AVAEIQLMHQRAKWIQDARRRAFLHKLIAEIHTA-NH2 [LA-PTH, reference compound]”, the “difference in KD between PTH and LA-PTH” value on nLuc-PTHR1 (direct-binding assay, K35^TMR peptides) is listed as ~ 5 fold.

Broadly, the IC50 is the midpoint of a concentration-inhibition curve. Lower therefore signals higher potency. “LA-PTH (long-acting PTH), unlabeled (peptide)”: the IC50 in assay [1] stood at 4.1 nM. In other words, the single-digit nanomolar range.

Usually Kd stands for the free concentration of one partner at which half of the binding sites on the other are occupied at equilibrium, for simple one-to-one binding. As for LA-PTH(1-34)-35K^TMR (peptide), in assay [2], the Kd was 72 nM, the koff turned out to be 0.0097 s⁻¹ and the kon was found to be 130000 M⁻¹ s⁻¹. In assay [1], this compound came in with a Kd of 2.4 nM, a koff of 0.00056 s⁻¹ and a kon of 230000 M⁻¹ s⁻¹.

For the compound M-PTH(1-14)-15K^TMR (peptide), in assay [2], the Kd came to 106 nM, the koff turned out to be 0.018 s⁻¹ and the kon worked out at 180000 M⁻¹ s⁻¹. Also, in assay [1], the Kd was 310 nM, the koff was found to be 0.024 s⁻¹ and the kon turned out to be 77000 M⁻¹ s⁻¹.

PTH(1-34)-N33K^TMR (peptide): in assay [1], the Kd was 11 nM and the koff was 0.0043 s⁻¹.

In assay [1], PTH(1-34)K35^TMR, I5H variant (peptide) had a dissociation constant Kd of 104 nM, a koff of 0.071 s⁻¹ and a kon of 440000 M⁻¹ s⁻¹.

For the compound “PTH(2-34): N-terminally truncated analogue of PTH(1-34) (VSEIQLMHNLGKHLNSMERVEWLRKKLQDVHNF-NH2; UniProt P01270 33-65, looked up, fragment) [reference compound]”, the “EC50 for cAMP production relative to EC50 of PTH(1-34) (fold higher)” value in the assay with WT-PTHR1 (estimated for the D-peptide) was ~ 10 fold.

In assay [1], PTH(2-34)K35^TMR (peptide) displayed a dissociation constant (Kd) of 21 nM, a koff of 0.0053 s⁻¹ and a kon of 250000 M⁻¹ s⁻¹.

On to “PTH(3-34): N-terminally truncated analogue of PTH(1-34) (SEIQLMHNLGKHLNSMERVEWLRKKLQDVHNF-NH2; UniProt P01270 34-65, looked up, fragment) [reference compound]”, for which the “agonist activity, cAMP production via the PTHR1 (in words)” value with WT-PTHR1 is “only minimal activity”.

With PTH(3-34)K35^TMR (peptide), in assay [1], the Kd came out at 27 nM, the koff worked out at 0.0094 s⁻¹ and the kon turned out to be 340000 M⁻¹ s⁻¹.

For “PTH[1-12] PTHrP[13-36] hybrid, Lys35(TMR) (peptide)”, in assay [3], the cAMP formation (GloSensor): %Emax was 107% and the cAMP formation (GloSensor): EC50 turned out to be 0.55 nM. In assay [1], this compound came in with a Kd of 4.4 nM and a koff of 0.0035 s⁻¹.

In assay [3], “PTH[1-14] PTHrP[15-36] hybrid, Lys35(TMR) (peptide)” gave a cAMP formation (GloSensor): %Emax of 106% and a cAMP formation (GloSensor): EC50 of 0.89 nM. In assay [1], this compound had a Kd of 6.1 nM, a koff of 0.0022 s⁻¹ and a kon of 350000 M⁻¹ s⁻¹.

Consider “PTH[1-16] PTHrP[17-36] hybrid, Lys35(TMR) (peptide)”, for which, in assay [3], the cAMP formation (GloSensor): %Emax was found to be 103% and the cAMP formation (GloSensor): EC50 came to 0.79 nM. In assay [1], this compound displayed a dissociation constant (Kd) of 3.4 nM, a koff of 0.0017 s⁻¹ and a kon of 530000 M⁻¹ s⁻¹.

On to “PTH[1-18] PTHrP[19-36] hybrid, Lys35(TMR) (peptide)”, for which, in assay [3], the cAMP formation (GloSensor): %Emax was found to be 106% and the cAMP formation (GloSensor): EC50 was 0.99 nM. Moreover, in assay [1], the Kd amounted to 26 nM, the koff was 0.0079 s⁻¹ and the kon was found to be 320000 M⁻¹ s⁻¹.

As to PTHrP(1-34)-His5-Ile-K35^TMR (peptide), the Kd in assay [1] was found to be 5 nM. In other words, the single-digit nanomolar range.

Consider “PTHrP(1-36): N-terminal fragment of parathyroid hormone-related protein, literature comparator [reference compound]”, for which the “KD with Ile5 relative to His5 at position 5 (fold lower)” value with nLuc-PTHR1 (pH 7.5, K35^TMR-labeled peptides) was ~ 5 fold.

The compound “PTHrP[1-12] PTH[13-34] hybrid, Lys35(TMR) (peptide)” had a cAMP formation (GloSensor): EC50 in assay [3] of 0.15 nM. In addition, in assay [1], the Kd worked out at 49 nM, the koff amounted to 0.029 s⁻¹ and the on-rate (kon) turned out to be 590000 M⁻¹ s⁻¹.

For “PTHrP[1-14] PTH[15-34] hybrid, Lys35(TMR) (peptide)”, in assay [3], the cAMP formation (GloSensor): %Emax turned out to be 97% and the cAMP formation (GloSensor): EC50 was determined as 0.39 nM. Further, in assay [1], the Kd worked out at 63 nM, the koff was found to be 0.043 s⁻¹ and the kon was 680000 M⁻¹ s⁻¹.

As to “PTHrP[1-16] PTH[17-34] hybrid, Lys35(TMR) (peptide)”, in assay [3], the cAMP formation (GloSensor): %Emax was 105% and the cAMP formation (GloSensor): EC50 was 0.48 nM. In assay [1], this compound showed a Kd of 95 nM, a koff of 0.041 s⁻¹ and a kon of 430000 M⁻¹ s⁻¹.

In assay [3], “PTHrP[1-18] PTH[19-34] hybrid, Lys35(TMR) (peptide)” came in with a cAMP formation (GloSensor): %Emax of 99% and a cAMP formation (GloSensor): EC50 of 0.16 nM.

The values above are taken from paper PMC9747329 (ACS chemical biology, 2022).
